How the values were obtained:
[1] = target: Flag-tagged CTC1 ΔB (human) (UniProt Q2NKJ3); test: co-IP
CTC1 V259M;STN1;TEN1 = CTC1 V259M;STN1;TEN1 (human?;human?;human?, UniProt Q2NKJ3;Q9H668;Q86WV5 1-1217;1-368;1-123, V259M||); test: EMSA
CTC1 A227V;STN1;TEN1 = CTC1 A227V;STN1;TEN1 (human?;human?;human?, UniProt Q2NKJ3;Q9H668;Q86WV5 1-1217;1-368;1-123, A227V||); test: EMSA
Chain of CTC1 A227V;STN1;TEN1 (Q2NKJ3 whole entry A227V, chain 1 of 3): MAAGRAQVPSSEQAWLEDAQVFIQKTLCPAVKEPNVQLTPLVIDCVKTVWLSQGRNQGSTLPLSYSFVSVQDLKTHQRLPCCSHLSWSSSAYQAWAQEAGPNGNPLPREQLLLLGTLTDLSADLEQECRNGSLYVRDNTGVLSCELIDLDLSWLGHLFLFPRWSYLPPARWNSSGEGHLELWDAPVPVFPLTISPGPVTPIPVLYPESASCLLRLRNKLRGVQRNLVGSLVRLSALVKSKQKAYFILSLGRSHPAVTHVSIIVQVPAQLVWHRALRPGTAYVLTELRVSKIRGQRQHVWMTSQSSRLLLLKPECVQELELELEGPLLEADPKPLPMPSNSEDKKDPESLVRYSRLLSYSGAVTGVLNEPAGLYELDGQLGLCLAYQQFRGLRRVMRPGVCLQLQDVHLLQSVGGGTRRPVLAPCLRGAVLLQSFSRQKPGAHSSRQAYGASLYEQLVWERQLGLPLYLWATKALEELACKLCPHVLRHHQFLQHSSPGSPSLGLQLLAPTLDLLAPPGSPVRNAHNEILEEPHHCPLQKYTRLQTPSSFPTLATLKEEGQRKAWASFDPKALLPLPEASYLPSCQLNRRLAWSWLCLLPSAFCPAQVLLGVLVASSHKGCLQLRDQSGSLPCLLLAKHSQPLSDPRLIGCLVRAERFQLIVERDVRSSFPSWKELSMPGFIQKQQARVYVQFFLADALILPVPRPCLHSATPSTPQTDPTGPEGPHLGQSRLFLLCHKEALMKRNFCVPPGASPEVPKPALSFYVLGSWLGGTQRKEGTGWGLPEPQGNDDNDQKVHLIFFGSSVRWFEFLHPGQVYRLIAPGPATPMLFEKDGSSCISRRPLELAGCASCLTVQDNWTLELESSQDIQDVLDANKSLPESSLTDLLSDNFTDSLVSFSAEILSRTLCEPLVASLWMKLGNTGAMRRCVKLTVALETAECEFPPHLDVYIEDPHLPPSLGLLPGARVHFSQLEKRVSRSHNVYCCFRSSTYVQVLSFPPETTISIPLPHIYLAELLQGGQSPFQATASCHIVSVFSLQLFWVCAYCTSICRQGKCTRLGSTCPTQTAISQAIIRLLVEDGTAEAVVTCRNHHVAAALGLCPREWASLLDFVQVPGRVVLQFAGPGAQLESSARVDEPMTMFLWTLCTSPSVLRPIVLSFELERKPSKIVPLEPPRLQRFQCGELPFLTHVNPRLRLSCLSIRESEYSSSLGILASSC
Chain of CTC1 A227V;STN1;TEN1 (Q9H668 whole entry, chain 2 of 3): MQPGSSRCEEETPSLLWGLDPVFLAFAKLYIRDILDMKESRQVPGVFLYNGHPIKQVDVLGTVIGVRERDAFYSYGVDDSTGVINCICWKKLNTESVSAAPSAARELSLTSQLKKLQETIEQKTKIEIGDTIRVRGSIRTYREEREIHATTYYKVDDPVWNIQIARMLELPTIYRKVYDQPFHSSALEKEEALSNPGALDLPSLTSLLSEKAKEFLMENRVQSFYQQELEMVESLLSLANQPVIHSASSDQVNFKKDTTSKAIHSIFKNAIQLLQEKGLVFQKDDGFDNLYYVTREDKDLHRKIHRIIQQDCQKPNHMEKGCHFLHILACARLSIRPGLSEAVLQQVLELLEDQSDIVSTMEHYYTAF
Chain of CTC1 A227V;STN1;TEN1 (Q86WV5 whole entry, chain 3 of 3): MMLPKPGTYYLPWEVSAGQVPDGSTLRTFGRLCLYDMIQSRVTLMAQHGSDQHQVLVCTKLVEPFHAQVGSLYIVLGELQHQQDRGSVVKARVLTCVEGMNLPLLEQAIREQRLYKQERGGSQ

Chain of Flag-tagged CTC1 ΔB (human) (Q2NKJ3 whole entry, stated change not applied): as the sequence (Q2NKJ3 whole entry A227V, chain 1 of 3) above, with V227A counted along it
Chain of CTC1 V259M;STN1;TEN1 (Q2NKJ3 whole entry V259M, chain 1 of 3): as the sequence (Q2NKJ3 whole entry A227V, chain 1 of 3) above, with V227A, V259M counted along it
Chain of CTC1 V259M;STN1;TEN1 (Q9H668 whole entry, chain 2 of 3): as the sequence (Q9H668 whole entry, chain 2 of 3) above
Chain of CTC1 V259M;STN1;TEN1 (Q86WV5 whole entry, chain 3 of 3): as the sequence (Q86WV5 whole entry, chain 3 of 3) above
Chain of Myc-tagged TPP1 (Q96AP0 whole entry): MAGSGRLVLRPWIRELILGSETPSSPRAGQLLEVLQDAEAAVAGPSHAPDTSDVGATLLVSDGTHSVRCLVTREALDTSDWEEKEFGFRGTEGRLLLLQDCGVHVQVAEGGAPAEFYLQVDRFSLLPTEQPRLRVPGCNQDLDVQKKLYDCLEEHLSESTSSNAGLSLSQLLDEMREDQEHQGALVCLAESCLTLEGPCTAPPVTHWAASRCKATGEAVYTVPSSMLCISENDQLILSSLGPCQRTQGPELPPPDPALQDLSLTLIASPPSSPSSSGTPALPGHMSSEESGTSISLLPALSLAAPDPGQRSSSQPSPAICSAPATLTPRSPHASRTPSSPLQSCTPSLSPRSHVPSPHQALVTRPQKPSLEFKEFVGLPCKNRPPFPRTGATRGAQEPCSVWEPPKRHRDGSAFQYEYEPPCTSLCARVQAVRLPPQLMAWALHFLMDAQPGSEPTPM

percent decrease of TPP1 co-immunoprecipitated, against WT CTC1 [1] | Molecule | binding result (CTC1 V259M;STN1;TEN1) | binding result (CTC1 A227V;STN1;TEN1)
44% | Myc-tagged TPP1 (from UniProt Q96AP0 1-458) (natural protein) |  | 
 | GGTTAGGGTTAGGGTTAG (ssDNA) [Tel-18 CY7] | binds | binds

Reference: paper PMC10250220
